We go through one substance from patent publication US20180037623A1.

In this assay the target is FGF23 receptor. Description: cell-based or functional assay.

In the case of sKlotho-FGF23-6×His fusion polypeptide, the Egr-1-luciferase reporter activity, fold change at about 0.6 nM purified fusion, with heparin (20 µg/ml) worked out at 2 fold change; the Egr-1-luciferase reporter activity, fold change at about 1.21 nM purified fusion, no heparin came out at 1.2 fold change; the Egr-1-luciferase reporter activity, fold change at about 19.3 nM purified fusion, no heparin was found to be 2.4 fold change.
